In IntAct's records for PubMed 21968187:

B1: Amyloid beta precursor protein binding family B member 1 (Homo sapiens), O00213 (parent)
chain: MSVPSSLSQSAINANSHGGPALSLPLPLHAAHNQLLNAKLQATAVGPKDLRSAMGEGGGPEPGPANAKWLKEGQNQLRRAATAHRDQNRNVTLTLAEEASQEPEMAPLGPKGLIHLYSELELSAHNAANRGLRGPGLIISTQEQGPDEGEEKAAGEAEEEEEDDDDEEEEEDLSSPPGLPEPLESVEAPPRPQALTDGPREHSKSASLLFGMRNSAASDEDSSWATLSQGSPSYGSPEDTDSFWNPNAFETDSDLPAGWMRVQDTSGTYYWHIPTGTTQWEPPGRASPSQGSSPQEESQLTWTGFAHGEGFEDGEFWKDEPSDEAPMELGLKEPEEGTLTFPAQSLSPEPLPQEEEKLPPRNTNPGIKCFAVRSLGWVEMTEEELAPGRSSVAVNNCIRQLSYHKNNLHDPMSGGWGEGKDLLLQLEDETLKLVEPQSQALLHAQPIISIRVWGVGRDSGRERDFAYVARDKLTQMLKCHVFRCEAPAKNIATSLHEICSKIMAERRNARCLVNGLSLDHSKLVDVPFQVEFPAPKNELVQKFQVYYLGNVPVAKPVGVDVINGALESVLSSSSREQWTPSHVSVAPATLTILHQQTEAVLGECRVRFLSFLAVGRDVHTFAFIMAAGPASFCCHMFWCEPNAASLSEAVQAACMLRYQKCLDARSQASTSCLPAPPAESVARRVGWTVRRGVQSLWGSLKPKRLGAHTP

Variants of: B1
Conditions: with lrp1_human LRP1, Q07954
lrp1_human LRP1, Q07954, sequence (Q07954 whole entry): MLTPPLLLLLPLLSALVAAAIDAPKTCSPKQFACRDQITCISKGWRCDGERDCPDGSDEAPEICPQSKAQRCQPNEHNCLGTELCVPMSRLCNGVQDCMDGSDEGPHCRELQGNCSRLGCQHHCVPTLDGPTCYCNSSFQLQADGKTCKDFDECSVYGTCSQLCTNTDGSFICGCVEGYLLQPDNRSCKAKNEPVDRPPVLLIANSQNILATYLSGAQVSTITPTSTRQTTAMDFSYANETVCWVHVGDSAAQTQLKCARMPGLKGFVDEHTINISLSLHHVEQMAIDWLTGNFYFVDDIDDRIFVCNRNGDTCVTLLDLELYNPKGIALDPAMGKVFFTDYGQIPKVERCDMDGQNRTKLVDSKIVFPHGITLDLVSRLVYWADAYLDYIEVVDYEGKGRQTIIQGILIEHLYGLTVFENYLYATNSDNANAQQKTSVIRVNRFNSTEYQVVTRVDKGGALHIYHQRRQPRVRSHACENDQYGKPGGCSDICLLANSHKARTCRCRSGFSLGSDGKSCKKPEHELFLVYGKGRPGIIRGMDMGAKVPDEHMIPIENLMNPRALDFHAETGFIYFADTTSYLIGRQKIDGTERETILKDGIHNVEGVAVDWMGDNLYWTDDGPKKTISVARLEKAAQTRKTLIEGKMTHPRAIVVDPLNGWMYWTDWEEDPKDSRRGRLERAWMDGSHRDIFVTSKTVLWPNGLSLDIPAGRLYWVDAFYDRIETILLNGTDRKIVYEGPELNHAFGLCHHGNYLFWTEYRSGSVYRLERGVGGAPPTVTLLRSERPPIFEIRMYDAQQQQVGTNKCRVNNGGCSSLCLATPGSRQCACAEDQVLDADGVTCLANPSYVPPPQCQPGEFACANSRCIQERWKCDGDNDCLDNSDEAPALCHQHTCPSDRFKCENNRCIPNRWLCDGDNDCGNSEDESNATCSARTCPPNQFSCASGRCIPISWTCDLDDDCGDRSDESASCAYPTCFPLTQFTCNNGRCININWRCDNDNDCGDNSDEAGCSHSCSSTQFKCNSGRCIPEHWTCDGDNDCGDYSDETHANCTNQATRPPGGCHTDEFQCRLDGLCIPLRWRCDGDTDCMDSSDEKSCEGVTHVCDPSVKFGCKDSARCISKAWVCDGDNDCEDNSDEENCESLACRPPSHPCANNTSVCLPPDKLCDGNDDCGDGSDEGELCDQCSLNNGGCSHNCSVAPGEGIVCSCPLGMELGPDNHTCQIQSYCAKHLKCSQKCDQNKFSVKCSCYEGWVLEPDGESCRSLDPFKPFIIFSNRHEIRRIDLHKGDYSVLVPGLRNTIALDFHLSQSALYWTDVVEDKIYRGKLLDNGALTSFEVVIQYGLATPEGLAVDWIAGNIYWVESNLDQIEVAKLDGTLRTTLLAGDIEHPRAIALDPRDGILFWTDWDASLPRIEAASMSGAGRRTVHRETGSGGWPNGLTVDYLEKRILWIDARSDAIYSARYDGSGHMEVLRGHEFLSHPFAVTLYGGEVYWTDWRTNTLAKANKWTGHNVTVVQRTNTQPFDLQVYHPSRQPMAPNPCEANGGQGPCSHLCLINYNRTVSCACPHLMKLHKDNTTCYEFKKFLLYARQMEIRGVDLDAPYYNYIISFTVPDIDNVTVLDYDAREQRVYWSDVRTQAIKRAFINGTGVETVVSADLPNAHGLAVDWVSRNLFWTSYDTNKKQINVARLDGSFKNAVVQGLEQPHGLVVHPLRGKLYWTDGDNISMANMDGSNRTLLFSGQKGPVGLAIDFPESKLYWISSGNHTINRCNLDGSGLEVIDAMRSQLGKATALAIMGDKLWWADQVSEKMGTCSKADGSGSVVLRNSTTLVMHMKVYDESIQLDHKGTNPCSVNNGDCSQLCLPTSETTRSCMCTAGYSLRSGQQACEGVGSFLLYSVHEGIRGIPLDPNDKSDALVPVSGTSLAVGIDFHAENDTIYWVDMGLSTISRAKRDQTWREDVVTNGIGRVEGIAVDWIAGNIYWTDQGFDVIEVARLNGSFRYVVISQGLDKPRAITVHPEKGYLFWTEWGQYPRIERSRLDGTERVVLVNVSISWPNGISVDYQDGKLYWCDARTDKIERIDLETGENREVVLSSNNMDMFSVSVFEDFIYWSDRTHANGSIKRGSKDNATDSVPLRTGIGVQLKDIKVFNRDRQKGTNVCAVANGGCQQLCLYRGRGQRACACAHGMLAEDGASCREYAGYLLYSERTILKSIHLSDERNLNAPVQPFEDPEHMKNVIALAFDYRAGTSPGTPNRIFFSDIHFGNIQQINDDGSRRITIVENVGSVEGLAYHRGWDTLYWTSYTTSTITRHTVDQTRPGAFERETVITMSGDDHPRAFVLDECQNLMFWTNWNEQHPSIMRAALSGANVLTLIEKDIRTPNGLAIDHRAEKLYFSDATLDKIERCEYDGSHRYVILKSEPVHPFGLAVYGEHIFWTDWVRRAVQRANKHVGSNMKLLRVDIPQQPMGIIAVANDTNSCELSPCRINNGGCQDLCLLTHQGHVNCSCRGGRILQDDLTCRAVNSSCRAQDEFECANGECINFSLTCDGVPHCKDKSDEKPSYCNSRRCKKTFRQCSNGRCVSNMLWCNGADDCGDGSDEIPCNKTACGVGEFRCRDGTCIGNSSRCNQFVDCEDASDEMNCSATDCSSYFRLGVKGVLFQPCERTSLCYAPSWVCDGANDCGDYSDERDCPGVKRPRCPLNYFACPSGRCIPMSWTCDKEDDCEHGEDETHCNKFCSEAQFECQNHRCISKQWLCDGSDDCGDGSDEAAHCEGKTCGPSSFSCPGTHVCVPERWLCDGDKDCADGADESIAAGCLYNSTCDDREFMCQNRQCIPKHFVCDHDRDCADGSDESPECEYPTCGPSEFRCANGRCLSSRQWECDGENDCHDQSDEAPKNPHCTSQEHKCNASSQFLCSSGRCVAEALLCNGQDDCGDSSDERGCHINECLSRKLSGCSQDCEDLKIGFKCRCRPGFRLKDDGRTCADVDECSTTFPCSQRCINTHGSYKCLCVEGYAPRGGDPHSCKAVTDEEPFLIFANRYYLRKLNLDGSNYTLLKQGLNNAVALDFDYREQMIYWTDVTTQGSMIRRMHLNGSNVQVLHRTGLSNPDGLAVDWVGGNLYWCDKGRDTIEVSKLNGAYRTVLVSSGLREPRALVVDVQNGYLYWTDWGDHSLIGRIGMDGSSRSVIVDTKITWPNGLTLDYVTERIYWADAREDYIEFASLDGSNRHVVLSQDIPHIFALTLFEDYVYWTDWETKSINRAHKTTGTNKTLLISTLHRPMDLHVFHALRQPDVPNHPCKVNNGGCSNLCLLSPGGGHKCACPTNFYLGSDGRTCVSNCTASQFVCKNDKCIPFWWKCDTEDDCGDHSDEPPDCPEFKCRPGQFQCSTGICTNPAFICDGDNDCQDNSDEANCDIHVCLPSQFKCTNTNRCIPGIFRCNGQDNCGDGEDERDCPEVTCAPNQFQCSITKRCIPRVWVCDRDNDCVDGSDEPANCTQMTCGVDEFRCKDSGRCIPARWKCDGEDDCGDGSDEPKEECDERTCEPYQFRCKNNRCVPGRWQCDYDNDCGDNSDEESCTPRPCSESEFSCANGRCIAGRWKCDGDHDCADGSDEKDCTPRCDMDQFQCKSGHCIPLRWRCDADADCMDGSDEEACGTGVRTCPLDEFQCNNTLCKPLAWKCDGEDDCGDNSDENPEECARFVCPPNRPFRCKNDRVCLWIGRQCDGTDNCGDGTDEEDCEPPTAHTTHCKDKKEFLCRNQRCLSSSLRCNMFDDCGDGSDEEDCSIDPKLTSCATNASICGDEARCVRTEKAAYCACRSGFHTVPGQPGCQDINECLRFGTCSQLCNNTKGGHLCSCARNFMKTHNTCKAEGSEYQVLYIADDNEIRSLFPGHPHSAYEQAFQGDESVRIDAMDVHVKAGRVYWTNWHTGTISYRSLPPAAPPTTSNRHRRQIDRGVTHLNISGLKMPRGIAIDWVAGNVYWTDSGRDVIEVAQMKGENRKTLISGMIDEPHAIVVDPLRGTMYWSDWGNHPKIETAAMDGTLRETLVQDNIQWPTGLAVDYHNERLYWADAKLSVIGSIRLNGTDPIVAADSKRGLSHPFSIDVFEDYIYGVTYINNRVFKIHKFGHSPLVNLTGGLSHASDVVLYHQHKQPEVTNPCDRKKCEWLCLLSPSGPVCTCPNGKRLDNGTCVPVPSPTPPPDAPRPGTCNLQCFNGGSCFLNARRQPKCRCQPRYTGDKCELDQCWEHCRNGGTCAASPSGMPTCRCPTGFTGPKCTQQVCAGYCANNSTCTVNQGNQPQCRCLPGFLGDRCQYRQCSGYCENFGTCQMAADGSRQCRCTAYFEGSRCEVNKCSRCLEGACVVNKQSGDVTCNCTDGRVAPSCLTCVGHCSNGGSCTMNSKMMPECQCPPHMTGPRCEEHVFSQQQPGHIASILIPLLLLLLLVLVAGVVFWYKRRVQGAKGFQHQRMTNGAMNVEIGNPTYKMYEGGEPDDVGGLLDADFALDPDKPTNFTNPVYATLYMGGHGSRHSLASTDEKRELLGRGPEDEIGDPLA

effect of a mutation on the interaction	Variant
disrupting interaction	R470A
disrupting interaction	R451A
